From US20230357395A1 (MARENGO THERAPEUTICS, published 2023)
Positions count from the first letter of the chain named.

T1: NKp30 on KHYG-1 NK cells (human, UniProt O14931 19-201)
T1 construct: whole, on cells; also called NK cell line KHYG-1; NKp30+ KHYG-1 cells
T1 sequence (looked up): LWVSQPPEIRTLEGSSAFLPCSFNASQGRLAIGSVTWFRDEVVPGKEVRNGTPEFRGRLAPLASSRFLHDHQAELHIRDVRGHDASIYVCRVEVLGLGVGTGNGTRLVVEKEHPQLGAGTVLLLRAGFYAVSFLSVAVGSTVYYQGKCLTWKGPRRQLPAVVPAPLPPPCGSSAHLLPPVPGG

T2: human NKp30 (construct not named) (human, UniProt O14931 19-135, limits assumed)
T2 construct: also called hNKp30
T2 sequence (looked up): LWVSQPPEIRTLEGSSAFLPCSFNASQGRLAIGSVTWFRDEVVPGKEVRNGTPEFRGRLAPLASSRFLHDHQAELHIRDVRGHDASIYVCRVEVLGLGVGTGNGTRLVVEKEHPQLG

B1: BIM0460 (Example 8; format not stated) (antibody, V domains shown)
VH: QVQLVQSGAEVKKPGSSVKVSCKASGYTFTGYVMHWVRQAPGQGLEWMGFINPYNDDIQSNERFRGRVTITSDKSTTTAYMELSSLRSEDTAVYYCARGAGYNFDGAYRFFDFWGQGTLVTVSS
VL: DVVMTQSPLSLPVTLGQPASISCRSSQRLVHSNGNTYLHWYQQRPGQSPRLLIYRVSNRFPGVPDRFSGSGSGTDFTLKISRVEAEDVGVYFCSQSTHVPYTFGGGTKVEIK
notes: Humanized JOVI.1 variant
B2: BJM0578 (Example 8; format not stated) (antibody, V domains shown)
VH: QVQLVQSGAEVKKPGSSVKVSCKASGYTFTGYVMHWVRQAPGQGLEWMGFIIPIFGTANYAQKFQGRVTITSDKSTTTAYMELSSLRSEDTAVYYCARGAGYNFDGAYRFFDFWGQGTLVTVSS
VL: B1 VL
notes: Germlined variant of BIM0460
B3: BKM0098 (anti-TRBC2/NKp30 bispecific antibody) (bispecific antibody, human IgG1, kappa, N297A)
heavy: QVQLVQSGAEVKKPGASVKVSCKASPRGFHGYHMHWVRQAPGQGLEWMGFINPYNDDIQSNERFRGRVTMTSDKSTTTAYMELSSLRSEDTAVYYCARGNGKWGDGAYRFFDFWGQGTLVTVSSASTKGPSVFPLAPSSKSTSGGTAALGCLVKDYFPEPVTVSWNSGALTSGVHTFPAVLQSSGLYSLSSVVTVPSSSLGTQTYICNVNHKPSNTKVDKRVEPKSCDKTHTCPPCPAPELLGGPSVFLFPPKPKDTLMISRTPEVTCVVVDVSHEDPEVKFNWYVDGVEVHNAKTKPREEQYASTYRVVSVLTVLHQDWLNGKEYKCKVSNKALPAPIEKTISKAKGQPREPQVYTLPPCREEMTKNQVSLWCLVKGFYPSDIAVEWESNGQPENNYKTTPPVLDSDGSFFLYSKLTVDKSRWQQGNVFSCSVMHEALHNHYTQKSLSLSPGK
light: DVVMTQSPLSLPVTPGEPASISCRSSQNLVHSNGRTYLQWYLQKPGQSPQLLIYRVSNRFPGVPDRFSGSGSGTDFTLKISRVEAEDVGVYFCSQSTHVPYTFGGGTKVEIKRTVAAPSVFIFPPSDEQLKSGTASVVCLLNNFYPREAKVQWKVDNALQSGNSQESVTEQDSKDSTYSLSSTLTLSKADYEKHKVYACEVTHQGLSSPVTKSFNRGEC
scFv: EIQLLESGGGLVQPGGSLRLSCAVSGFSITTTGYHWNWVRQAPGKGLEWVGYIYSSGSTSYNPSLKSRFTISRDTSKNTFYLQMNSLRAEDTAVYYCARGDWHYFDYWGQGTMVTVSSGGGGSGGGGSGGGGSGGGGSDSVTTQSPLSLPVTLGQPASISCSGEKLSDKYVHWYQQRPGQSPRMLIYENDRRPSGVPDRFSGSNSGNDATLKISRVEAEDVGVYFCQFWDSTNSAVFGGGTKVEIKDKTHTCPPCPAPELLGGPSVFLFPPKPKDTLMISRTPEVTCVVVDVSHEDPEVKFNWYVDGVEVHNAKTKPREEQYASTYRVVSVLTVLHQDWLNGKEYKCKVSNKALPAPIEKTISKAKGQPREPQVCTLPPSREEMTKNQVSLSCAVKGFYPSDIAVEWESNGQPENNYKTTPPVLDSDGSFFLVSKLTVDKSRWQQGNVFSCSVMHEALHNHYTQKSLSLSPGK
notes: Anti-TRBC2 Fab-Fc and anti-NKp30 scFv-Fc; also called Anti-TRBC2-NKp30-BKM0098; Parental Bispecific
B4: BKM0240 (anti-TRBC2/NKp30 bispecific antibody) (bispecific antibody, human IgG1, kappa, N297A)
heavy: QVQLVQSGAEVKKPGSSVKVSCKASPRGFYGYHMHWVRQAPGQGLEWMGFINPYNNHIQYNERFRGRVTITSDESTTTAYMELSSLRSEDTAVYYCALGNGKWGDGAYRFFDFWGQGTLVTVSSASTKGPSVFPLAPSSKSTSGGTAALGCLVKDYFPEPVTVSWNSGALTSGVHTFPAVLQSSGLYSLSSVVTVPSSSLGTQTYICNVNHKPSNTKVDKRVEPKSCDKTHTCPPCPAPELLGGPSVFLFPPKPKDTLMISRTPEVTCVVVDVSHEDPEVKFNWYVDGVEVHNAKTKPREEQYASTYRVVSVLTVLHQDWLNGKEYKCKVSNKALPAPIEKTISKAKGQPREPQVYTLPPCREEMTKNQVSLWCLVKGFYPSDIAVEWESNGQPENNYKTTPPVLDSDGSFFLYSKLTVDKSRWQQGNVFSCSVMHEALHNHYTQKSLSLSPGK
light: B3 light with P15L, E17Q, Q27K, L42Q, K44R, Q50R, H98R, V99E
scFv: B3 scFv
notes: also called Parental Bispecific
B5: BKM0312 (anti-TRBC2/NKp30 bispecific antibody) (bispecific antibody)
chain 1: not shown
chain 2: B3 light with P15L, E17Q, Q27K, L42Q, K44R, Q50R, H98R, V99E
chain 3: B3 scFv
B6: BKM0311 (anti-TRBC2/NKp30 bispecific antibody) (bispecific antibody, human IgG1, kappa, N297A)
heavy: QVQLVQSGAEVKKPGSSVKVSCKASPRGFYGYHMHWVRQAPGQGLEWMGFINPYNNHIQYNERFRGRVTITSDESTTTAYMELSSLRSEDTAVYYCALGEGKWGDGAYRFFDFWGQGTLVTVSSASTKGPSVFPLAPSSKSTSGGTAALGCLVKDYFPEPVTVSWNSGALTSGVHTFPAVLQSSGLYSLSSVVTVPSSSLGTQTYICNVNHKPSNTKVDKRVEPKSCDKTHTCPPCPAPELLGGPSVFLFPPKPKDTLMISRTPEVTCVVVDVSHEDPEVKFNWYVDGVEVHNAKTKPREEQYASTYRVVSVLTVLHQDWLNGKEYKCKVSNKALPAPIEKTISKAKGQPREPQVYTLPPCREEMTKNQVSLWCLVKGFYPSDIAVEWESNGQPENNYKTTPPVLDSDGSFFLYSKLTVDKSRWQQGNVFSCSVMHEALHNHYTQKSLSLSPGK
light: B3 light with P15L, E17Q, Q27K, L42Q, K44R, Q50R, H98R, V99E
scFv: B3 scFv

The binders below were run against T3, human TRBC1 (construct not named) (human, UniProt P01850 1-129, limits assumed) (assay: method not stated).
T3 construct: also called hTRBC1
T3 sequence (P01850 1-129 limits assumed): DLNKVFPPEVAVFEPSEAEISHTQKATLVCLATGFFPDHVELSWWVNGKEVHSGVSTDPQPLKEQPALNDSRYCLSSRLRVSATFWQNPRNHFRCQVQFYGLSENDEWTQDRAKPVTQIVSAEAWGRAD

| Kd [nM] | Binder |
| --- | --- |
| 17 | B1 |
| 110 | B2 |

Each binder was assayed against T1, NKp30 on KHYG-1 NK cells (assay: flow cytometry on NKp30+ KHYG-1 cells, antibody 200 nM to 0.003387 nM).
Protocol: (§1) A flow cytometry-based assay was performed to check binding of anti-TRBC2x NKp30 to either TRBC2+ HPB-ALL cells, TRBC1+ Jurkat cells or NKp30+ KHYG-1 cells.
(§2) Each antibody was diluted to 200 nM and then serially diluted three-fold down to 0.003387 nM. Antibodies were incubated with each cell line for 1 hour at 4C. […] Zombie UV (BioLegend 423107) viability dye was added to the cells 1:1000 and incubated for 30 minutes at room temperature. Cells were analyzed on the CytoFlex LX flow cytometer.

| EC50 [nM] | Binder |
| --- | --- |
| 4 | B3 |
| 1.5 | B4 |
| 1.1 | B5 |
| 0.33 | B6 |

Each binder was assayed against T4, TRBC2 on TRBC2+ cell lines (HPB-ALL; HH; HDMAR2) (human, UniProt A0A5B9 1-178) (assay: flow cytometry on TRBC2+ HPB-ALL cells, antibody 200 nM to 0.003387 nM).
T4 construct: whole, on cells; also called TRBC2+ HPB-ALL cells
T4 sequence (A0A5B9 whole entry): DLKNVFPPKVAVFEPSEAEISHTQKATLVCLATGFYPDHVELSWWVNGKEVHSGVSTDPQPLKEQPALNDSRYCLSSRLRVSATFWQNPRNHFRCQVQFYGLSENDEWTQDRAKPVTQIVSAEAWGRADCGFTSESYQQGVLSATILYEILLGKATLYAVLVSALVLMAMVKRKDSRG
Protocol: as §1, §2

| EC50 [nM] | Binder |
| --- | --- |
| 4 | B3 |
| 1.5 | B4 |
| 1.1 | B5 |
| 0.33 | B6 |

The binders below were run against T5, human TRBC2 (construct not named) (human, UniProt A0A5B9 1-129, limits assumed) (assay: SPR, bispecific captured via anti-human Fc on CM5, hTRBC2 from 125 nM in two-fold dilutions, 1:1 fit).
T5 construct: also called hTRBC2
T5 sequence (A0A5B9 1-129 limits assumed): as the sequence (P01850 1-129 limits assumed) above, with N3K, K4N, E9K, F36Y counted along it
Protocol: (§3) In this example, surface plasmon resonance assay was performed to check binding of anti-TRBC2xNKp30 bispecific antibodies (bispecifics) to either hTRBC2, hTRBC1 or hNKp30 proteins. […] The bispecific antibodies may or may not have an N297A mutation in their Fc regions. FIG. 31B represents a design for monovalent TRBC2 control. Briefly, TRBC2xNKp30 bispecifics at 2 ug/mL were immobilized on CM5 chip via anti-human Fc antibody to 70 RU. Human TRBC2 or human TRBC1 antigens were diluted to 125 nM and then serially diluted two-fold. Association was 300 seconds and dissociation were 600 seconds. This assay was run in 1 x HBS-EP+ Buffer pH 7.4 and 25 C. The data was fit using a 1:1 binding model assess binding of bispecifics to NKp30, human NKp30 at 2 ug/mL was immobilized on CM5 chip via Anti-mouse Fc antibody to 70 RU. TRBC2xNKp30 bispecifics were diluted to 50 nM and then serially diluted two-fold. Association was 300 seconds and dissociation were 600 seconds. This assay was run in 1 x HBS-EP+ Buffer pH 7.4 and 25 C. The data was fit using a 1:1 binding model.

| Kd [nM] | Binder |
| --- | --- |
| 89 | B3 |
| 28 | B4 |
| 31 | B5 |
| 9.2 | B6 |

Each binder was assayed against T2, human NKp30 (construct not named) (assay: SPR, human NKp30 captured via anti-mouse Fc on CM5, bispecific from 50 nM in two-fold dilutions, 1:1 fit).
Protocol: as §3

| Kd [nM] | Binder |
| --- | --- |
| 0.63 | B3 |
| 0.58 | B4 |
| 0.54 | B5 |
| 0.63 | B6 |
